This is an account of results in the supplement of paper PMC10567573.

The labels stand for the following.
B1: GMCL1 (parent)
chain: FCYCAGSHKRKRSSGSFCYCHPDS
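Also: lentivirally expressed fusions sorted by FACS into six bins by GFP to DsRed ratio, PSI derived from sequencing read proportions per bin multiplied by bin number.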

In the data set the parent is B1. The data set is described as follows: protein stability index of a GFP-peptide fusion (GPS, HEK-293T) (PSI 1-6); higher = more stable. The settings on record: c terminus: a fixed tail appended.
For FCYCAGSHKRKRSSGSFKYCHPDS [C18K], the protein stability index was 1.95.

On to FCYCAGSHKRKRSSGSFGYCHPDS [C18G], for which the protein stability index was 2.18.

Take FCYCAGSHKRKRSSGSFLYCHPDS [C18L]: the protein stability index was found to be 2.4.

Regarding FCYCAGSHKRKRSSGSFMYCHPDS [C18M], the protein stability index worked out at 2.11.

Turning to FCYCAGSHKRKRSSGSFDYCHPDS [C18D], the protein stability index amounted to 1.87.

On to FCYCAGSHKRKRSSGSFQYCHPDS [C18Q], for which the protein stability index came out at 2.63.

For the variant FCYCAGSHKRKRSSGSFPYCHPDS [C18P], the protein stability index is 2.1.

Regarding FCYCAGSHKRKRSSGSFHYCHPDS [C18H], the protein stability index was found to be 1.77.

For FCYCAGSHKRKRSSGSFVYCHPDS [C18V], the protein stability index worked out at 1.83.

For the variant FCYCAGSHKRKRSSGSFEYCHPDS [C18E], the protein stability index was 2.74.

For FCYCAGSHKRKRSSGSFTYCHPDS [C18T], the protein stability index amounted to 1.79.

For the variant FCYCAGSHKRKRSSGSFAYCHPDS [C18A], the protein stability index was determined as 2.74.

In the case of FCYCAGSHKRKRSSGSFIYCHPDS [C18I], the protein stability index stood at 2.27.

Regarding FCYCAGSHKRKRSSGSFWYCHPDS [C18W], the protein stability index was 2.99.

As for FCYCAGSHKRKRSSGSFSYCHPDS [C18S], the protein stability index amounted to 2.65.

In the case of FCYCAGSHKRKRSSGSFRYCHPDS [C18R], the protein stability index is 1.63.

As for FCYCAGSHKRKRSSGSFNYCHPDS [C18N], the protein stability index came to 2.2.

As for FCYCAGSHKRKRSSGSFYYCHPDS [C18Y], the protein stability index is 1.14.

As for FCYCAGSHKRKRSHGSFCYCHPDS [S14H], the protein stability index amounted to 2.79.

Take FCYCAGSHKRKRSGGSFCYCHPDS [S14G]: the protein stability index was found to be 1.89.

Take FCYCAGSHKRKRSYGSFCYCHPDS [S14Y]: the protein stability index is 2.07.

Regarding FCYCAGSHKRKRSEGSFCYCHPDS [S14E], the protein stability index turned out to be 1.87.

On to FCYCAGSHKRKRSMGSFCYCHPDS [S14M], for which the protein stability index amounted to 2.04.

Consider FCYCAGSHKRKRSTGSFCYCHPDS [S14T], for which the protein stability index came to 1.46.

For the variant FCYCAGSHKRKRSAGSFCYCHPDS [S14A], the protein stability index was determined as 2.2.

For the variant FCYCAGSHKRKRSCGSFCYCHPDS [S14C], the protein stability index came out at 1.86.

For FCYCAGSHKRKRSVGSFCYCHPDS [S14V], the protein stability index stood at 1.89.

On to FCYCAGSHKRKRSLGSFCYCHPDS [S14L], for which the protein stability index was 2.6.

Consider FCYCAGSHKRKRSFGSFCYCHPDS [S14F], for which the protein stability index came out at 2.35.

For the variant FCYCAGSHKRKRSRGSFCYCHPDS [S14R], the protein stability index came to 2.02.

As to FCYCAGSHKRKRSQGSFCYCHPDS [S14Q], the protein stability index is 1.89.

Turning to FCYCAGSHKRKRSPGSFCYCHPDS [S14P], the protein stability index was 1.93.

On to FCYCAGSHKRKRSWGSFCYCHPDS [S14W], for which the protein stability index is 2.03.

Turning to FCYCAGSHKRKRSKGSFCYCHPDS [S14K], the protein stability index was found to be 1.61.

Regarding FCYCAGSHKRKRSNGSFCYCHPDS [S14N], the protein stability index worked out at 2.37.

As for FCYCAGSHKRKRSDGSFCYCHPDS [S14D], the protein stability index was found to be 2.18.

With FCYCAGSHKRKRSIGSFCYCHPDS [S14I], the protein stability index was determined as 1.64.

In the case of FCYCAGSHKRKRSSGSFCYCDPDS [H21D], the protein stability index came out at 2.47.

On to FCYCAGSHKRKRSSGSFCYCSPDS [H21S], for which the protein stability index was found to be 2.87.

For FCYCAGSHKRKRSSGSFCYCKPDS [H21K], the protein stability index was determined as 3.17.

Consider FCYCAGSHKRKRSSGSFCYCLPDS [H21L], for which the protein stability index is 2.88.

As to FCYCAGSHKRKRSSGSFCYCWPDS [H21W], the protein stability index stood at 1.63.

FCYCAGSHKRKRSSGSFCYCQPDS [H21Q]: the protein stability index is 2.74.

FCYCAGSHKRKRSSGSFCYCEPDS [H21E]: the protein stability index stood at 2.73.

For the variant FCYCAGSHKRKRSSGSFCYCCPDS [H21C], the protein stability index was 1.11.

For FCYCAGSHKRKRSSGSFCYCMPDS [H21M], the protein stability index is 3.12.

As to FCYCAGSHKRKRSSGSFCYCIPDS [H21I], the protein stability index was determined as 2.69.

For the variant FCYCAGSHKRKRSSGSFCYCRPDS [H21R], the protein stability index turned out to be 2.54.

Regarding FCYCAGSHKRKRSSGSFCYCTPDS [H21T], the protein stability index was determined as 2.47.

Turning to FCYCAGSHKRKRSSGSFCYCVPDS [H21V], the protein stability index was found to be 2.51.

For the variant FCYCAGSHKRKRSSGSFCYCNPDS [H21N], the protein stability index was determined as 2.43.

On to FCYCAGSHKRKRSSGSFCYCAPDS [H21A], for which the protein stability index is 2.41.

FCYCAGSHKRKRSSGSFCYCYPDS [H21Y]: the protein stability index came to 2.43.

As to FCYCAGSHKRKRSSGSFCYCGPDS [H21G], the protein stability index is 2.55.

With FCYCAGSHKRKRSSGSFCYCPPDS [H21P], the protein stability index was determined as 2.21.

As for FCYCAGSHKRKRSSGSFCYCFPDS [H21F], the protein stability index stood at 2.51.

As to FCYCAGSHKRKRTSGSFCYCHPDS [S13T], the protein stability index was determined as 2.11.

For the variant FCYCAGSHKRKRHSGSFCYCHPDS [S13H], the protein stability index was determined as 2.21.

Consider FCYCAGSHKRKRYSGSFCYCHPDS [S13Y], for which the protein stability index worked out at 1.7.

Consider FCYCAGSHKRKRWSGSFCYCHPDS [S13W], for which the protein stability index stood at 1.84.

FCYCAGSHKRKRCSGSFCYCHPDS [S13C]: the protein stability index turned out to be 2.17.

For FCYCAGSHKRKRVSGSFCYCHPDS [S13V], the protein stability index worked out at 1.86.

On to FCYCAGSHKRKRGSGSFCYCHPDS [S13G], for which the protein stability index worked out at 1.56.

For FCYCAGSHKRKRMSGSFCYCHPDS [S13M], the protein stability index is 2.04.

In the case of FCYCAGSHKRKRESGSFCYCHPDS [S13E], the protein stability index was 2.02.

As for FCYCAGSHKRKRPSGSFCYCHPDS [S13P], the protein stability index was found to be 2.67.

Turning to FCYCAGSHKRKRQSGSFCYCHPDS [S13Q], the protein stability index was 1.7.

As for FCYCAGSHKRKRKSGSFCYCHPDS [S13K], the protein stability index is 1.96.

On to FCYCAGSHKRKRNSGSFCYCHPDS [S13N], for which the protein stability index was determined as 1.64.

On to FCYCAGSHKRKRASGSFCYCHPDS [S13A], for which the protein stability index was 1.95.

As to FCYCAGSHKRKRISGSFCYCHPDS [S13I], the protein stability index was found to be 1.88.

Consider FCYCAGSHKRKRDSGSFCYCHPDS [S13D], for which the protein stability index came out at 2.74.

FCYCAGSHKRKRLSGSFCYCHPDS [S13L]: the protein stability index is 2.5.

Regarding FCYCAGSHKRKRFSGSFCYCHPDS [S13F], the protein stability index is 2.24.

As to FCYCAGSHKRKRRSGSFCYCHPDS [S13R], the protein stability index was 1.85.

For the variant FCYCAGSHKRKRSSGSFCYAHPDS [C20A], the protein stability index was found to be 2.01.

As for FCYCAGSHKRKRSSGSFCYHHPDS [C20H], the protein stability index came to 2.

Turning to FCYCAGSHKRKRSSGSFCYPHPDS [C20P], the protein stability index is 1.94.

Turning to FCYCAGSHKRKRSSGSFCYGHPDS [C20G], the protein stability index is 1.99.

For the variant FCYCAGSHKRKRSSGSFCYDHPDS [C20D], the protein stability index was found to be 2.73.

For FCYCAGSHKRKRSSGSFCYQHPDS [C20Q], the protein stability index was found to be 1.5.

Regarding FCYCAGSHKRKRSSGSFCYMHPDS [C20M], the protein stability index is 2.3.

Take FCYCAGSHKRKRSSGSFCYKHPDS [C20K]: the protein stability index stood at 1.58.

FCYCAGSHKRKRSSGSFCYNHPDS [C20N]: the protein stability index came out at 1.99.

For FCYCAGSHKRKRSSGSFCYEHPDS [C20E], the protein stability index was 1.88.

Turning to FCYCAGSHKRKRSSGSFCYVHPDS [C20V], the protein stability index came to 1.91.

As to FCYCAGSHKRKRSSGSFCYYHPDS [C20Y], the protein stability index stood at 1.71.

Consider FCYCAGSHKRKRSSGSFCYTHPDS [C20T], for which the protein stability index was determined as 1.98.

Turning to FCYCAGSHKRKRSSGSFCYRHPDS [C20R], the protein stability index was found to be 1.68.

As to FCYCAGSHKRKRSSGSFCYFHPDS [C20F], the protein stability index came to 1.84.

Regarding FCYCAGSHKRKRSSGSFCYWHPDS [C20W], the protein stability index is 1.95.

FCYCAGSHKRKRSSGSFCYIHPDS [C20I]: the protein stability index is 2.06.

Turning to FCYCAGSHKRKRSSGSFCYSHPDS [C20S], the protein stability index turned out to be 1.5.

For the variant FCYCAGSHKRKRSSGSFCYLHPDS [C20L], the protein stability index was 2.18.
